According to article PMC3798688, “A Structural Basis for BRD2/4-Mediated Host Chromatin Interaction and Oligomer Assembly of Kaposi Sarcoma-Associated Herpesvirus and Murine Gammaherpesvirus LANA Proteins” (PLoS Pathogens, 2013):

B1: mLANA(124–260) (domain or fragment)
chain: GSKRYSRYQKPHNPSDPLPKKYQGMRRHLQVTAPRLFDPEGHPPTHFKSAVMFSSTHPYTLNKLHKCIQSKHVLSTPVSCLPLVPGTTQQCVTYYLLSFVEDKKQAKKLKRVVLAYCEKYHSSVEGTIVKAKPYFPLPE
notes: source: E. coli BL21(DE3), purified (Ni-NTA with guanidine gradient, thrombin cleavage)
B2: kLANA(1013–1149) (domain or fragment)
chain: GSRYQQPPVPYRQIDDCPAKARPQHIFYRRFLGKDGRRDPKCQWKFAVIFWGNDPYGLKKLSQAFQFGGVKAGPVSCLPHPGPDQSPITYCVYVYCQNKDTSKKVQMARLAWEASHPLAGNLQSSIVKFKKPLPLTQPG
notes: as for B1
B3: kLANA(996–1153) (domain or fragment)
chain: GSGVRMRRVPVTHPKKPHPRYQQPPVPYRQIDDCPAKARPQHIFYRRFLGKDGRRDPKCQWKFAVIFWGNDPYGLKKLSQAFQFGGVKAGPVSCLPHPGPDQSPITYCVYVYCQNKDTSKKVQMARLAWEASHPLAGNLQSSIVKFKKPLPLTQPGENQG
notes: as for B1
B4: 15N-BRD2 ET(632–713), with N-terminal GSGS (domain or fragment)
chain: GSGSDSEEEEESRPMSYDEKRQLSLDINKLPGEKLGRVVHIIQAREPSLRDSNPEEIEIDFETLKPSTLRELERYVLSCLRKKPRK
notes: also called 15N-BRD2(632–713); source: E. coli BL21(DE3), purified (Ni-NTA with guanidine gradient, thrombin cleavage)

What was measured:
crystal structure = molecular target: the molecule itself; test: crystal structure
[1] = molecular target: the molecule itself; test: asymmetric field flow fractionation with multi-angle static light scattering; 40 µg protein per run; 10 mM bis-tris-Cl pH 6.5, 50 mM NaCl, 0.01% NaN3
kLANA(996–1153) = molecular target: B3; test: NMR titration; conditions: both partners purified

Binder	stoichiometry N (crystal structure)	stoichiometry N [1]	binding result (kLANA(996–1153))
B1	2	–	–
B2	10	2	–
B3	8	–	–
B4	–	–	binds
